This experiment addresses HAP1 phage capsid (T4 phage mutant with a nonsense mutation in the hoc gene, no functional Hoc protein on the capsid) (T4 phage (mutant HAP1)). The experiment can be described thus: SEC; RFP-Hoc and new HAP1 virions produced together in infected E. coli; filtered lysate on Sepharose 4B (2.5 x 95 cm), 0.063 M phosphate buffer pH 7.2, 0.3 mL/min; phages eluted in the highest molecular weight fraction (A), non-incorporated RFP-Hoc in fraction B; fluorescence and titer of the fractions measured. For orientation: Size exclusion chromatography separates by hydrodynamic size, large species first.

We go through one substance from article PMC7917791.

RFP-Hoc fusion (red fluorescent protein fused to the N-terminal end of the T4 phage Hoc protein), sequence (P18056 whole entry, the tested form may be a part): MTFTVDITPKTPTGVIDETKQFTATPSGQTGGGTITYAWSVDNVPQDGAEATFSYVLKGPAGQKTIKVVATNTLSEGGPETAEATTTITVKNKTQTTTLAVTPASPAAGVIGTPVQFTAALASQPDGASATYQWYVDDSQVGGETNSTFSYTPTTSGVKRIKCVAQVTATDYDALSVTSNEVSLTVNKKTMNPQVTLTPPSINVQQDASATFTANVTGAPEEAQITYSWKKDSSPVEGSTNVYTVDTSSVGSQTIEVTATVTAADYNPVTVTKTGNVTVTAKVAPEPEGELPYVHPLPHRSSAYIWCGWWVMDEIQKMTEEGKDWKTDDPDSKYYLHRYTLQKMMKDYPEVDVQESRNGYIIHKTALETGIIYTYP

In turn, “RFP-Hoc fusion (red fluorescent protein fused to the N-terminal end of the T4 phage Hoc protein) (from UniProt P18056 1-376) (natural protein)” showed a fluorescence of the phage fraction A after size exclusion chromatography of 5.12e+06 a.u.
